{"source": "paper PMC8605023", "key": {"USP7 MATH": {"biological_target": "USP7 MATH", "experiment": "FP"}, "[1]": {"biological_target": "G3BP1 NTF2 domain (human) (UniProt Q13283)", "sequence (Q13283 11-133)": "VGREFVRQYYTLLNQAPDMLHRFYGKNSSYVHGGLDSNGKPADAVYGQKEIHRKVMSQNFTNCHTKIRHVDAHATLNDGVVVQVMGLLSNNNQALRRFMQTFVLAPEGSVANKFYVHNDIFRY"}, "[2]": {"biological_target": "G3BP2 NTF2 domain (human) (UniProt Q9UN86)", "sequence (Q9UN86 11-133)": "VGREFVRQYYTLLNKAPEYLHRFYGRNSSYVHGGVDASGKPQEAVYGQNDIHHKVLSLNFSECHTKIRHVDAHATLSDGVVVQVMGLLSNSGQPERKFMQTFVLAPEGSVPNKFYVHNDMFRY"}, "AP2M1 (human)": {"biological_target": "AP2M1 (human) (UniProt Q96CW1)", "sequence (Q96CW1 whole entry)": "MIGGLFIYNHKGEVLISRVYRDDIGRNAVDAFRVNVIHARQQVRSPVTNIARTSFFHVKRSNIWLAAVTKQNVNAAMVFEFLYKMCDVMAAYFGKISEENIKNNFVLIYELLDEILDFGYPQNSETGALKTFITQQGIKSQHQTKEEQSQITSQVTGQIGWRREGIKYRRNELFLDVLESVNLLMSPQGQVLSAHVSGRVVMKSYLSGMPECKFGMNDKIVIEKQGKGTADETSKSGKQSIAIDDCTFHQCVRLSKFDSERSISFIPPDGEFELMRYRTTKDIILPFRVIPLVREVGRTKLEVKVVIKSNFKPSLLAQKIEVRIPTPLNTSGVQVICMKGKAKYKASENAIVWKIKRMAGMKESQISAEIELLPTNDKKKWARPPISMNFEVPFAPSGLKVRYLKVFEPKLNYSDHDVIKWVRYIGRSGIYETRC"}, "[3]": {"biological_target": "FITC-MDM2 peptide (human)"}, "USP7 (human)": {"biological_target": "USP7 (human) (UniProt Q93009)", "sequence (Q93009 whole entry)": "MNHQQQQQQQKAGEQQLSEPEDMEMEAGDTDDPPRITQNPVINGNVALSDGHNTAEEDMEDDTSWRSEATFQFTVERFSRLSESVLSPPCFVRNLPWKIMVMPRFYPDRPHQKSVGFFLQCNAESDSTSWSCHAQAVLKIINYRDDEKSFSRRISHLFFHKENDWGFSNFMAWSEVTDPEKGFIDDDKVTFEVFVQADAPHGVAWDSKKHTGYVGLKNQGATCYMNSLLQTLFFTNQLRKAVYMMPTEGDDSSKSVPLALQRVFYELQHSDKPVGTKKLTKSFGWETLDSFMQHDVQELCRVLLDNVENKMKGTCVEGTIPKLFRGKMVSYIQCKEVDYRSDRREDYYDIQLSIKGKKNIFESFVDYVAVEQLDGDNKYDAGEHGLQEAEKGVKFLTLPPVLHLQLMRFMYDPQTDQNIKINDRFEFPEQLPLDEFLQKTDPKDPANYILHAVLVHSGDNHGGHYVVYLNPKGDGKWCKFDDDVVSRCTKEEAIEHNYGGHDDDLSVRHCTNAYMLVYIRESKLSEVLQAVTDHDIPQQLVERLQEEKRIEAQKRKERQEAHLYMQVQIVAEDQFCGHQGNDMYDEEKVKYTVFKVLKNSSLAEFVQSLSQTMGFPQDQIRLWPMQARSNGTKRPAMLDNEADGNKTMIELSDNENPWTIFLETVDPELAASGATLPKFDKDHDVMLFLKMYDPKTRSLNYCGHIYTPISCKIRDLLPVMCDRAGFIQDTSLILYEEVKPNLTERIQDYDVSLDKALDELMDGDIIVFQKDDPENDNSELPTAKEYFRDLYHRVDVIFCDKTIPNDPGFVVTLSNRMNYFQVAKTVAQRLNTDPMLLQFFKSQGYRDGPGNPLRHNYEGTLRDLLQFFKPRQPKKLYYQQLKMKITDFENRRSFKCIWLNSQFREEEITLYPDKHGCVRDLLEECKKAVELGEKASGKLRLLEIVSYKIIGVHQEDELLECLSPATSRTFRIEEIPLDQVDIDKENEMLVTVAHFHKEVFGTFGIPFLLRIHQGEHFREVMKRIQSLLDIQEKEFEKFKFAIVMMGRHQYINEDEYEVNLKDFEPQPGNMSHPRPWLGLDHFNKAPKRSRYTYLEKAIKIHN"}, "[4]": {"biological_target": "ATG8 domain of MAP1LC3C (human) (UniProt Q9BXW4)", "sequence (Q9BXW4 whole entry, the tested form may be a part)": "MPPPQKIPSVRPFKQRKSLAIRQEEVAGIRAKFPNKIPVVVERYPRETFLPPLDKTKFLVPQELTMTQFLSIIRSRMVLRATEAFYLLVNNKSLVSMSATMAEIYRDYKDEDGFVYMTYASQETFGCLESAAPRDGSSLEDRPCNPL", "experiment": "FP"}, "[5]": {"biological_target": "ATG9A FITC-…"}, "[6]": {"biological_target": "MAP1LC3C ATG8 domain (human) (UniProt Q9BXW4)", "sequence (Q9BXW4 1-126)": "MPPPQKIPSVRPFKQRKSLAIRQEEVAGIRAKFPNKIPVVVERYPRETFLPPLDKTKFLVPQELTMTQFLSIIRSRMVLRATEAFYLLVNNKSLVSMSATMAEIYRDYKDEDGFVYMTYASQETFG"}, "[7]": {"biological_target": "SQSTM1 FITC-…"}, "[8]": {"biological_target": "FITC-SQSTM1 peptide 335-344 (human)"}}}
{"substance": "SARS-CoV N 205-219", "values": [{"measurement": "Kd", "setting": "USP7 MATH", "value": 220, "unit": "µM"}]}
{"substance": "NSP3 peptide 1785-1796 (SFV, Semliki-Forest-Virus)", "values": [{"measurement": "IC50", "setting": "[1]", "value": 23, "unit": "µM"}, {"measurement": "IC50", "setting": "[2]", "value": 13, "unit": "µM"}]}
{"substance": "NSP14 peptide 6498-6512 (Mers)", "values": [{"measurement": "Ki", "setting": "AP2M1 (human)", "value": 3, "unit": "µM"}]}
{"substance": "USP7 (from UniProt Q93009 1-1102) (domain or fragment)", "values": [{"measurement": "Kd", "setting": "[3]", "value": 0.49, "unit": "µM"}]}
{"substance": "N peptide 406-422 (Sars-CoV)", "values": [{"measurement": "IC50", "setting": "USP7 (human)", "value": 690, "unit": "µM"}, {"measurement": "Ki", "setting": "USP7 (human)", "value": 96, "unit": "µM"}]}
{"substance": "SARS-CoV-2 N 405-419", "values": [{"measurement": "Kd", "setting": "USP7 MATH", "value": 150, "unit": "µM"}]}
{"substance": "N peptide 353-367 (Sars-CoV2/Sars-CoV)", "values": [{"measurement": "IC50", "setting": "AP2M1 (human)", "value": 1530, "unit": "µM"}, {"measurement": "Ki", "setting": "AP2M1 (human)", "value": 530, "unit": "µM"}]}
{"substance": "NSP3 peptide 1796-1809 (SFV, Semliki-Forest-Virus)", "values": [{"measurement": "IC50", "setting": "[2]", "value": 11, "unit": "µM"}]}
{"substance": "SARS-CoV-2 NSP3 2019-2038", "values": [{"measurement": "Kd", "setting": "[4]", "value": 210, "unit": "µM"}]}
{"substance": "NSP3 peptide 1785-1809 (SFV, Semliki-Forest-Virus)", "values": [{"measurement": "IC50", "setting": "[1]", "value": 0.0044, "unit": "µM"}, {"measurement": "IC50", "setting": "[2]", "value": 0.0019, "unit": "µM"}, {"measurement": "Ki", "setting": "[2]", "value": 0.15, "unit": "µM"}]}
{"substance": "SARS-CoV-2 NSP4 3248-3263", "values": [{"measurement": "Kd", "setting": "USP7 MATH", "value": 67, "unit": "µM"}]}
{"substance": "SARS-CoV NSP3 2019-2038", "values": [{"measurement": "Kd", "setting": "[4]", "value": 28, "unit": "µM"}]}
{"substance": "N peptide 206-220 (Sars-CoV)", "values": [{"measurement": "IC50", "setting": "USP7 (human)", "value": 1500, "unit": "µM"}, {"measurement": "Ki", "setting": "USP7 (human)", "value": 220, "unit": "µM"}]}
{"substance": "NSP1 peptide 161-177 (Sars-CoV)", "values": [{"measurement": "IC50", "setting": "USP7 (human)", "value": 2000, "unit": "µM"}, {"measurement": "Ki", "setting": "USP7 (human)", "value": 280, "unit": "µM"}]}
{"substance": "NSP4 peptide 3248-3263 (Sars-CoV2/Sars-CoV)", "values": [{"measurement": "IC50", "setting": "USP7 (human)", "value": 480, "unit": "µM"}, {"measurement": "Ki", "setting": "USP7 (human)", "value": 67, "unit": "µM"}]}
{"substance": "SARS-CoV NSP3 2019-2034", "values": [{"measurement": "Kd", "setting": "USP7 MATH", "value": 29, "unit": "µM"}]}
{"substance": "SARS-CoV N 405-419", "values": [{"measurement": "Kd", "setting": "USP7 MATH", "value": 96, "unit": "µM"}]}
{"substance": "AP2M1 (from UniProt Q96CW1 1-435) (domain or fragment)", "values": [{"measurement": "Kd", "setting": "[5]", "value": 1.1, "unit": "µM"}]}
{"substance": "SARS-CoV NSP1 161-176", "values": [{"measurement": "Kd", "setting": "USP7 MATH", "value": 280, "unit": "µM"}]}
{"substance": "SARS-CoV NSP4 3248-3263", "values": [{"measurement": "Kd", "setting": "USP7 MATH", "value": 67, "unit": "µM"}]}
{"substance": "NSP3 peptide 1996-2011 (Sars-CoV)", "values": [{"measurement": "IC50", "setting": "[6]", "value": 200, "unit": "µM"}, {"measurement": "Ki", "setting": "[6]", "value": 28, "unit": "µM"}, {"measurement": "IC50", "setting": "USP7 (human)", "value": 210, "unit": "µM"}, {"measurement": "Ki", "setting": "USP7 (human)", "value": 29, "unit": "µM"}]}
{"substance": "SARS-CoV-2 NSP3 2019-2034", "values": [{"measurement": "Kd", "setting": "USP7 MATH", "value": 37, "unit": "µM"}]}
{"substance": "MAP1LC3C ATG8 domain (from UniProt Q9BXW4 1-126) (domain or fragment)", "values": [{"measurement": "Kd", "setting": "[7]", "value": 1.1, "unit": "µM"}, {"measurement": "Kd", "setting": "[8]", "value": 1.1, "unit": "µM"}]}
